Five molecules from publication PMC4287183, “Affinity maturation of Cry1Aa toxin to the Bombyx mori cadherin-like receptor by directed evolution based on phage display and biopanning selections of domain II loop 2 mutant toxins” (MicrobiologyOpen, 2014) can be followed below.

The term Kd denotes the concentration at which binding is half-saturated. High values mean lower affinity, low ones higher affinity. For orientation: koff means a measure of how fast the partners let go of each other. A lower koff goes with slow dissociation.

The target of assay [1] is Cry1Aa toxin-binding region of Bombyx mori cadherin-like receptor BtR175 (BtR175-TBR) (Bombyx mori) (UniProt Q9XY09). As to the kind of experiment: SPR; BtR175-TBR immobilized on a CM5 chip by amine coupling (Biacore J); four concentrations of toxin in PBST (0.005% Tween, pH 7.4) for 120 sec, dissociation 240 sec; 1:1 Langmuir model, global fitting; KD = kd/ka. (In general: In SPR one partner is held on a chip, and binding of the other changes the refractive index at the surface.)

The target of assay [2] is wild-type Cry1Aa toxin (trypsin-activated) (B. thuringiensis subsp. kurstaki strain …, UniProt P0A366 1-1176, Trypsin-activated toxin core, unmutated wild type. Limits are not printed: the N-terminus at Ile29 follows the conventional trypsin cut after Arg28 (and the IETGYTP start in the phage-display primer),). The assay is described as above. The note with it: both partners purified.

In assay [1], “Cry1Aa domain II loop 2 mutant toxin 371PHRP374 (trypsin-activated) (from UniProt P0A366 1-1176) (ligand)” displayed a Kd of 8.3 nM and a koff of 0.00122 s⁻¹.

In assay [1], “Cry1Aa domain II loop 2 mutant toxin 371WGLA374 (trypsin-activated) (from UniProt P0A366 1-1176) (ligand)” came in with a Kd of 1.56 nM and a koff of 0.00061 s⁻¹.

In assay [1], “Cry1Aa domain II loop 2 mutant toxin 371WPHH374 (trypsin-activated) (from UniProt P0A366 1-1176) (ligand)” returned a dissociation constant Kd of 1.55 nM and a koff of 0.00066 s⁻¹.

For the molecule “Cry1Aa domain II loop 2 mutant toxin 371WRPQ374 (trypsin-activated) (from UniProt P0A366 1-1176) (ligand)”, in assay [1], the Kd is 0.5 nM and the koff turned out to be 0.00102 s⁻¹.

B1: Cry1Aa toxin-binding region of Bombyx mori cadherin-like receptor BtR175 (BtR175-TBR) (domain or fragment)
chain: ELVIRPYNFHAPVFVFPKHGATLRLARERAVVNGLLATVDGEFLNRIVATDEDGLHAGQVAFEVVGDTEAVDYFHIVNDGENSGTLMLKQLFPEDIREFEVTIRATDGGTEPRPLSTDCTFSVVFVPIQGEPIFPTSTHTVAFIEKEAGLLERHELPRAEDRKNHLCSDDCHNIYYRIIDGNNDGHFGLDETTNVLFLVKELDRSVSETYTLTIAASNSPTGGIALTSTITITVNVREADPQPYFVRDLYTAGISTSDSINRELLILQATHSENAPIIYTIDWSTMVTDPTLASVRETAFILNPHTGVLTLNIQPTASMHGMFEFQVVATDPAGYSDRANVKIYLISTRNRVFFLFV
notes: The limits are stated for the GST fusion used in biopanning; also called GST-BtR175-TBR; source: prepared as described previously (Fujii et al. 2013); GST-BtR175-TBR from pGEX4t-3, harvested as inclusion bodies and solubilized
In assay [2], B1 yielded a Kd of 25 nM and a koff of 0.00267 s⁻¹.
